Experimental data: US20260285972 (published 2026)

T1: recombinant human GPRC5D-Flag-His (human, UniProt Q9NZD1)
T1 chain: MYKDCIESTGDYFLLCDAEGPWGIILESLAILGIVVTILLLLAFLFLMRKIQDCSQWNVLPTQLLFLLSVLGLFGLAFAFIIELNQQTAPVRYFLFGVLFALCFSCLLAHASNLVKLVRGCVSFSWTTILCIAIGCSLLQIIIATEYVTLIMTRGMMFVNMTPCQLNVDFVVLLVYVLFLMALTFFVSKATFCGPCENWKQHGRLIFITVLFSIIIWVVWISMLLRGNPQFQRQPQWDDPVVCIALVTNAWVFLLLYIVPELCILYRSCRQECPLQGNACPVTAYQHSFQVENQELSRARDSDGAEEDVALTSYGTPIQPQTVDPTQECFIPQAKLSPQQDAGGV


Molecular target: T1, recombinant human GPRC5D-Flag-His
Test: BLI

Kd [nM]	Binder
5.67	22Mono5UQY (antibody, V domains shown, Flag-His tag, ACRO GPD-H52D3) VH: QVQLQESGPGLVKPSETLSLTCTASGYPFTNYWMHWVRQPPGKGLEWIGEINPSNGRTNYNEKFKSRATLSLDKSKNQASLNLDSVSAADTAIYYCARGFAYWGKGSTVTVSS VL: AIQLTQSPSSLSASVGDRVTITCSASSSVSFMHWYQQKPGKAPKRWIYDTTKLASGVPSRFSGSGSGTDYTFTISSLQPEDIATYYCQQWNSHPLTFGPGTKVDIK
0.787	22Mono5JO4 (antibody, V domains shown, Flag-His tag, ACRO GPD-H52D3) VH: QVQLVQSGAEVKKPGSSVKVSCRASGYPFTNYWMHWVRQAPGQGLEWIGEINPSNGRTNYNEKFKSRATLTLDKLTSTAYMELSSLTSEDTALYYCARGFAYWGQGTLVTVSS VL: EIVLTQSPGTLSLSPGERATLSCSASSSVSFMHWYQQKPGQAPRRWIYDTTKLASGIPDRFSGSGSGTDYTLTISRLEPEDFAVYYCQQWNSHPLTFGQGTTVEIK

Continued, binder first:

Binder	Kd [nM]
22Mono3L7F (antibody, V domains shown, Flag-His tag, ACRO GPD-H52D3) VH: EVTLKESGPVLVKPTETLTLTCTASGYPFTNYWMHWVRQPPGKALEWIGEINPSNGRTNYNEKFKSRATLSLDKSKSQAVLTMTNMDPVDTATYYCARGFAYWGQGTLVTVSS VL: EIVLTQSPATLSLSPGERATLSCSASSSVSFMHWYQQKPGQAPRRWIYDTTKLASGIPARFSGSGSGTDYTLTISSLEPEDFAVYYCQQWNSHPLTFGQGTKLEIK	25.6
22Mono4DN4 (antibody, V domains shown, Flag-His tag, ACRO GPD-H52D3) VH: ELVQSGAEVKKPGSSVKVSCKASGYPFTNYWMHWVRQAPGQGLEWIGEINPSNGRTNYNEKFKSRATLTLDKSTSTAYMELSSLRSEDTAVYYCARGFAYWGQGTLVTVSS VL: EIVLTQSPATLSLSPGERATLSCSASSSVSFMHWYQQKPGQAPRRWIYDTTKLASGVPARFSGSGSGTDYTLTISSLEPEDFAVYYCQQWNSHPLTFGQGTKVEIK	16.9
